The values that follow come from patent US7662770.

The data set addresses EphA2 receptor tyrosine kinase, endogenous in MCF-10A and MDA-MB-231 human mammary epithelial cells (UniProt P29317).
Sequence of UniProt P29317 (P29317 whole entry, looked up): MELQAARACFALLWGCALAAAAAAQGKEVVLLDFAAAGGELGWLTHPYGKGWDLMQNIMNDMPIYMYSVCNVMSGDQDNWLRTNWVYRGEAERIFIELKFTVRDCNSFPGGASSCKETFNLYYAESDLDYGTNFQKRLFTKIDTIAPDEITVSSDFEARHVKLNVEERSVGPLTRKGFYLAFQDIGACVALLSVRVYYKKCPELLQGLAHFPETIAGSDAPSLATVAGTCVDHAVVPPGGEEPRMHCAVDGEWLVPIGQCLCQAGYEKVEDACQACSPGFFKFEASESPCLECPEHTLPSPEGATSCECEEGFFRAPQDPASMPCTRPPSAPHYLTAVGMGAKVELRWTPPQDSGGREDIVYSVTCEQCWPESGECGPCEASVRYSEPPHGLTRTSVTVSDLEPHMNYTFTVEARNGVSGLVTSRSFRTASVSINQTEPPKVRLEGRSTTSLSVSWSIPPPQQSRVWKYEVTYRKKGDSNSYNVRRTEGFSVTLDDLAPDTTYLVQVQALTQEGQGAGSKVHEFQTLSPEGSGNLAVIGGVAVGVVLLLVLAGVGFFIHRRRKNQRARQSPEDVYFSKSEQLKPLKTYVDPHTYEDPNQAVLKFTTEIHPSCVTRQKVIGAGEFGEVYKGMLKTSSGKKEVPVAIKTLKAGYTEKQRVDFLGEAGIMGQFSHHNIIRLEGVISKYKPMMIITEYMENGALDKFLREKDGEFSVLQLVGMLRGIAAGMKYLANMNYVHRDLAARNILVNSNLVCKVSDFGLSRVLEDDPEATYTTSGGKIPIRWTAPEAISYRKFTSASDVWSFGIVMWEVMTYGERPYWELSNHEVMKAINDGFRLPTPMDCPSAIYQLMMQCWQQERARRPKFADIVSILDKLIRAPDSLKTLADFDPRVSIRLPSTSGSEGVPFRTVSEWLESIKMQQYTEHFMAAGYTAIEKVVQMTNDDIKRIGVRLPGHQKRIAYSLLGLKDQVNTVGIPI

As to “purified LMW-PTP protein (used in the in vitro dephosphorylation assays)”, the “dephosphorylation of immunoprecipitated EphA2 (Western blot with PY20 and 4G10)” value was “purified LMW-PTP could dephosphorylate EphA2 in a dose and time-dependent manner”.
